In patent US20190016816A1 (APTEVO RESEARCH AND DEVELOPMENT, published 2019):

T1: human 5T4 on cells (human, UniProt Q13641 32-420)
T1 sequence: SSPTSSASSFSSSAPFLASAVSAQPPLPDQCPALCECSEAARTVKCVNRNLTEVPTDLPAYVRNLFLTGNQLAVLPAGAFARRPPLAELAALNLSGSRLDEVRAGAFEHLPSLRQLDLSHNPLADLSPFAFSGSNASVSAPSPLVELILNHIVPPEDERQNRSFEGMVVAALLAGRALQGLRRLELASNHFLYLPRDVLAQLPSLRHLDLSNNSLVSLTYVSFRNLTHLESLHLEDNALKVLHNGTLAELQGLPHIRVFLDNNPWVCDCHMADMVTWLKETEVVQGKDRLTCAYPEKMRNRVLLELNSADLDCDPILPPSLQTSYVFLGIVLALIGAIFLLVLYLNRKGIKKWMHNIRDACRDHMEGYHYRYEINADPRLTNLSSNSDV


Columns and labels:
human 5T4 on cells [1] = molecular target: T1, human 5T4 on cells; test: cell-based or functional assay
human CD137 on cells = molecular target: T2, human CD137 on cells (human, UniProt Q07011 24-255); test: flow cytometry, percentage of CD8 T cells (gated from CD3-stimulated human PBMC) bound by the biotinylated antibody, exp 1, n=3 donors
T2 construct: also called 4-1BB; TNFRSF9 (CHO-K1/human CD137 cells)
T2 sequence (Q07011 24-255 limits assumed): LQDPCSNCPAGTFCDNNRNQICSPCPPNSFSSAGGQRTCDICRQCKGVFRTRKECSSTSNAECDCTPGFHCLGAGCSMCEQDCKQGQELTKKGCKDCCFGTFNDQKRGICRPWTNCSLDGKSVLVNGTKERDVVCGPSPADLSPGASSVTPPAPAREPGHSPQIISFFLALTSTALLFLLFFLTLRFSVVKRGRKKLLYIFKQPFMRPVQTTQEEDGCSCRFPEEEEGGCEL
Method: Following 48 h of incubation with or without CD3, human and cynomolgus PBMC were harvested, pooled, recounted and diluted in FACS buffer (PBS+0.5% BSA, 0.05% NaN₃) to a concentration of 5×10⁶ cells/mL. 50 μL (0.25×10⁶ cells) of cell solution was added to a 96-well FACS staining plate (Falcon #351190). Following 10 min of Fc-blocking in RT using Beriglobin (hIgG, 200 μg/mL), cells were washed in FACS buffer and then incubated for 1 h in 4° C. with 100 μL of the biotinylated ALG.APV-210 or negative control. The antibodies were added in a serial dilution starting either at 5 μg/mL titrating down in a 12 step ⅓ dilution down to […] (exp 1) or 1 μg/mL titrating down in a 12 step ½ dilution down to 0.0005 μg/mL (exp 2). […] Cells were analysed for ALG.APV-210 binding using flow cytometry by gating on viable, single cells expressing CD3 and CD8. MFI values (FMO subtracted) from 2 independent experiments as well as normalized pooled data from 2 experiments and EC₅₀-values were determined and plotted using GraphPad Prism 7, non-linear regression log (agonist) vs. normalized response—variable slope, n=6 donors/group.

human 5T4 on cells [2] = molecular target: T1, human 5T4 on cells; test: flow cytometry, CT26-hu5T4^int cells, streptavidin-PE, normalized MFI of 2 pooled experiments
Method: (§1) Prior to the FACS staining, all cell lines were characterized for their 5T4 expression levels using a receptor density kit (Quantum Simply Cellular, anti-human IgG, Bangs Laboratories, Inc). Adherent cell lines were cultured according to their supplier's instructions and were harvested from their cell culture flasks using Trypsin/EDTA, counted in R10 medium in a Burker chamber, and diluted in FACS buffer (PBS+0.5% BSA, 0.05% NaN₃) to a concentration of 4×10⁶ cells/mL. 50 μL (0.20×10⁶) of cell solution was added to a 96-well FACS staining plate (Falcon #351190). Cells were incubated for 20 min in 4° C. with 50 μL of the biotinylated ALG.APV-210 (2× final concentration). The antibodies were added in a serial dilution starting at 20 μg/mL titrating down in a 12 step ½ dilution down to 0.010 μg/mL. Following 2× washing with FACS buffer, cells were incubated for 30 min in 4° C. with 100 μL of a secondary antibody (streptavidin-PE, BD #554061, diluted 1/500). […] Cells were analysed for ALG.APV-210 binding using flow cytometry (FACSVerse) by gating on single cells. MFI values (secondary antibody only subtracted) from 1 out of 2 independent experiments, as well as normalized data and EC₅₀-values of pooled data from 2 experiments were determined and plotted using GraphPad Prism 7, non-linear regression log (agonist) vs. normalized response—variable slope.

human 5T4 on cells [3] = molecular target: T1, human 5T4 on cells; test: flow cytometry, JEG cells, streptavidin-PE, normalized MFI of 2 pooled experiments
Method: as §1

human 5T4 on cells [4] = molecular target: T1, human 5T4 on cells; test: flow cytometry, CHO-hu5T4 cells, streptavidin-PE, normalized MFI of 2 pooled experiments
Method: as §1

Row | EC50 (nM), IFNγ release of human CD8 T cells with CT26-h5T4^high cells (human 5T4 on cells [1]) | EC50 (nM), IFNγ release of human CD8 T cells with CT26-h5T4^low cells (human 5T4 on cells [1]) | Binder | EC50 (read off the curve) (human CD137 on cells) | EC50 (human 5T4 on cells [2]) | EC50 (human 5T4 on cells [3]) | EC50 (human 5T4 on cells [4])
1 | 0.41 nM | 0.24 nM | ALG.APV-210 (bispecific antibody, Optimized ADAPTIR scFv-Fc-scFv homodimer with stabilizing disulfide in the 1210 scFv; also called 5T4-CD137 bispecific antibody) EVQLLESGGGLVQPGGSLRLSCAASGFTFSHGSMYWVRQAPGKGLEWVSSISSGSGSTYYADSVKGRFTISHDNSKNTLYLQMNSLRAEDTAVYYCARSSYYGSYYSIDYWGQGTLVTVSSGGGGSGGGGSGGGGSGGGGSDIQMTQSPSSLSASVGDRVTITCRASQSISSYLNWYQQKPGKAPKLLIYAASSLQSGVPSRFSGSGSGTDFTLTISSLQPEDFATYYCQQYYDNLPTFGQGTKLEIKEPKSSDKTHTCPPCPAPEAAGAPSVFLFPPKPKDTLMISRTPEVTCVVVDVSHEDPEVKFNWYVDGVEVHNAKTKPREEQYNSTYRVVSVLTVLHQDWLNGKEYKCAVSNKALPAPIEKTISKAKGQPREPQVYTLPPSRDELTKNQVSLTCLVKGFYPSDIAVEWESNGQPENNYKTTPPVLDSDGSFFLYSKLTVDKSRWQQGNVFSCSVMHEALHNHYTQKSLSLSPGSGGGGSGGGGSGGGGSPSEVQLLESGGGLVQPGGSLRLSCAASGFTFSSYAMSWVRQAPGKCLEWVSAISGSGGSTYYADSVKGRFTISRDNSKNTLYLQMNSLRAEDTAVYYCARYYGGYYSAWMDYWGQGTLVTVSSGGGGSGGGGSGGGGSGGGGSDIQMTQSPSSLSASVGDRVTITCRASQSISSFLNWYQQKPGKAPKLLIYAASSLQSGVPSRFSGSGSGTDFTLTISSLQPEDSATYYCQQTYGYLHTFGCGTKLEIKR |  |  |  | 
2 |  |  | biotinylated ALG.APV-210 (bispecific antibody, also called ALG.APV-210 (biotinylated for FACS detection)) EVQLLESGGGLVQPGGSLRLSCAASGFTFSHGSMYWVRQAPGKGLEWVSSISSGSGSTYYADSVKGRFTISHDNSKNTLYLQMNSLRAEDTAVYYCARSSYYGSYYSIDYWGQGTLVTVSSGGGGSGGGGSGGGGSGGGGSDIQMTQSPSSLSASVGDRVTITCRASQSISSYLNWYQQKPGKAPKLLIYAASSLQSGVPSRFSGSGSGTDFTLTISSLQPEDFATYYCQQYYDNLPTFGQGTKLEIKEPKSSDKTHTCPPCPAPEAAGAPSVFLFPPKPKDTLMISRTPEVTCVVVDVSHEDPEVKFNWYVDGVEVHNAKTKPREEQYNSTYRVVSVLTVLHQDWLNGKEYKCAVSNKALPAPIEKTISKAKGQPREPQVYTLPPSRDELTKNQVSLTCLVKGFYPSDIAVEWESNGQPENNYKTTPPVLDSDGSFFLYSKLTVDKSRWQQGNVFSCSVMHEALHNHYTQKSLSLSPGSGGGGSGGGGSGGGGSPSEVQLLESGGGLVQPGGSLRLSCAASGFTFSSYAMSWVRQAPGKCLEWVSAISGSGGSTYYADSVKGRFTISRDNSKNTLYLQMNSLRAEDTAVYYCARYYGGYYSAWMDYWGQGTLVTVSSGGGGSGGGGSGGGGSGGGGSDIQMTQSPSSLSASVGDRVTITCRASQSISSFLNWYQQKPGKAPKLLIYAASSLQSGVPSRFSGSGSGTDFTLTISSLQPEDSATYYCQQTYGYLHTFGCGTKLEIKR | ~0.02 nM | 12 nM | 8 nM | 23 nM
